Assay results from patent US20240092841A1.

How the values were obtained:
Assay in all cases: co-IP with agarose-bound AvFc from H460 whole-cell lysate, mass spectrometry
[1] = target: Nidogen-2 (human) (UniProt Q14112)
[2] = target: Insulin-like growth factor 1 receptor (human) (UniProt P08069)
[3] = target: Transferrin receptor protein 1 (human) (UniProt P02786)
[4] = target: Attractin (O75882-2) (human) (UniProt O75882)
[5] = target: Protocadherin Fat 1 (human) (UniProt Q14517)
[6] = target: Niemann-Pick C1 protein (human) (UniProt O15118)
[7] = target: Solute carrier family 12 member 7 (human) (UniProt Q9Y666)
[8] = target: Contactin-associated protein 1 (human) (UniProt P78357)
[9] = target: ATP-binding cassette sub-family A member 2 (human) (UniProt Q9BZC7)
UniProt Q9BZC7, sequence (Q9BZC7 other isoform, or with tags, fused parts or gaps limits assumed): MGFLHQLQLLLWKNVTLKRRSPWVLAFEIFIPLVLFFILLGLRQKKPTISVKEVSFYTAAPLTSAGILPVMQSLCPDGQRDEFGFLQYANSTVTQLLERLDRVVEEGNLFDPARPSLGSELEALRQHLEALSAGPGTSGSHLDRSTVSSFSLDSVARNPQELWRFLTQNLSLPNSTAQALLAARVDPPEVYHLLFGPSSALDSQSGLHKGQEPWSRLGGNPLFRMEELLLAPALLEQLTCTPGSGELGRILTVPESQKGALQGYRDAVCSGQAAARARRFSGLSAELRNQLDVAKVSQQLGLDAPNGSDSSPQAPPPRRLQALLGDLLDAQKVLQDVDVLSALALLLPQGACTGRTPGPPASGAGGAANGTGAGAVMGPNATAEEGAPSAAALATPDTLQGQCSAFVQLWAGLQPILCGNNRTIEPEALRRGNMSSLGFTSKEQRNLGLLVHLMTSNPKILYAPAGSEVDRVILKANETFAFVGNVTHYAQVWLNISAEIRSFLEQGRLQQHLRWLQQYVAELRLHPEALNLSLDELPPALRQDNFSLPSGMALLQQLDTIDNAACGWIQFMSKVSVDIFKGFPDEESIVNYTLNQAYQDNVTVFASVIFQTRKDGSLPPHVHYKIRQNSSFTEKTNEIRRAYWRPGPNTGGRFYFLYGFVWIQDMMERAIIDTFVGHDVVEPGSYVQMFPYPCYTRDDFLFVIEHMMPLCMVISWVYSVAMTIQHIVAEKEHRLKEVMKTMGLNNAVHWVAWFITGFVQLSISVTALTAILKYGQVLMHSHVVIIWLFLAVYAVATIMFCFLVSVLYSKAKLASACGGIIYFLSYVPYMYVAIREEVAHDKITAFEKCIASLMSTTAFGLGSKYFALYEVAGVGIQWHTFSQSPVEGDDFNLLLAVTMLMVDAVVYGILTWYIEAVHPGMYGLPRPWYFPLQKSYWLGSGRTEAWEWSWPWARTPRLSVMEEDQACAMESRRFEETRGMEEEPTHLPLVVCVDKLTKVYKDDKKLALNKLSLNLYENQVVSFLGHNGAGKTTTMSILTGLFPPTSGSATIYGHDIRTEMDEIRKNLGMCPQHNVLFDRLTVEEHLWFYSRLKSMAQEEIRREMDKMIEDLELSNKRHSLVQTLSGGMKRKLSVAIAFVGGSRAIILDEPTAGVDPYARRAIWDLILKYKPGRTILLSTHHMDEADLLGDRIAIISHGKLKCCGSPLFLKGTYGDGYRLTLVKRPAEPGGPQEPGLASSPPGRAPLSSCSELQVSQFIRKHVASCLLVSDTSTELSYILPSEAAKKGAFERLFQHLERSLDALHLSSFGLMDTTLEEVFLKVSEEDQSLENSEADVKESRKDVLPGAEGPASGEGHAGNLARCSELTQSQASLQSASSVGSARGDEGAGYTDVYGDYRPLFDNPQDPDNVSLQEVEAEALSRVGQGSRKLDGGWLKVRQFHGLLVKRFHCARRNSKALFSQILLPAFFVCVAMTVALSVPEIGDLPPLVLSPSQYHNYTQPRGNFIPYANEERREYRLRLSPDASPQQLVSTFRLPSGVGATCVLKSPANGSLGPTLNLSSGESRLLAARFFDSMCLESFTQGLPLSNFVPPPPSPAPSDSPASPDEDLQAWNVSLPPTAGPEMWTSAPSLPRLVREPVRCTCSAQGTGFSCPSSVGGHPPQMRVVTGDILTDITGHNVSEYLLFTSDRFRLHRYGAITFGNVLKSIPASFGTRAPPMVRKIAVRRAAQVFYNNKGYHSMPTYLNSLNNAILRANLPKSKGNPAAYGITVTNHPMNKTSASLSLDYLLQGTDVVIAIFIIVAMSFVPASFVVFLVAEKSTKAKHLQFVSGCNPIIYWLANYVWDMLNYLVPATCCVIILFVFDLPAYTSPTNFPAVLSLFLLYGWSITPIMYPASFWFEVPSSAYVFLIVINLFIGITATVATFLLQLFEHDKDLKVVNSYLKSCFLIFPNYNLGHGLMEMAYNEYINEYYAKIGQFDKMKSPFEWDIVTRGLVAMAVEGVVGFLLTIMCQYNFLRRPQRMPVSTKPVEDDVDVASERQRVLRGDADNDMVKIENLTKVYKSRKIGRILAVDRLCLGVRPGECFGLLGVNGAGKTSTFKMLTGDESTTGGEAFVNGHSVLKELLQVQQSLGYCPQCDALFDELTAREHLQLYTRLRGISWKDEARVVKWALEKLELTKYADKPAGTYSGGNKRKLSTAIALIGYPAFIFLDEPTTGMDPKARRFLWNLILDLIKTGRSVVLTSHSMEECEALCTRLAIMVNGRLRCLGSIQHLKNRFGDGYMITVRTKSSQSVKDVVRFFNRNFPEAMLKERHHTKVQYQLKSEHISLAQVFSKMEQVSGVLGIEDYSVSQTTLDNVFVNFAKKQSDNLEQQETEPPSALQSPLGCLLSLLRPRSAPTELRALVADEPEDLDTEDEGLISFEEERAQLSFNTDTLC

[10] = target: Filamin-A (human) (UniProt P21333)
[11] = target: Laminin subunit beta-2 (human) (UniProt P55268)
[12] = target: Plexin-B2 (human) (UniProt O15031)
[13] = target: Transmembrane protein 106B (human) (UniProt Q9NUM4)
UniProt Q9NUM4, sequence (Q9NUM4 2-274 limits assumed): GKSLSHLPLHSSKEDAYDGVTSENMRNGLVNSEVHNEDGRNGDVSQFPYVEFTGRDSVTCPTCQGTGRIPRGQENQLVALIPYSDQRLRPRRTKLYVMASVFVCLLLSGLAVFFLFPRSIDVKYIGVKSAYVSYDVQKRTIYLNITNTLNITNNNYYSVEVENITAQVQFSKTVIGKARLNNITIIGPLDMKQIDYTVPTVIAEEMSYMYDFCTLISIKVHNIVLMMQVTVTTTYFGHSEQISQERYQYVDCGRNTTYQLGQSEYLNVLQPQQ

[14] = target: Fibronectin (human) (UniProt P02751)
UniProt P02751, sequence (P02751 other isoform, or with tags, fused parts or gaps limits assumed): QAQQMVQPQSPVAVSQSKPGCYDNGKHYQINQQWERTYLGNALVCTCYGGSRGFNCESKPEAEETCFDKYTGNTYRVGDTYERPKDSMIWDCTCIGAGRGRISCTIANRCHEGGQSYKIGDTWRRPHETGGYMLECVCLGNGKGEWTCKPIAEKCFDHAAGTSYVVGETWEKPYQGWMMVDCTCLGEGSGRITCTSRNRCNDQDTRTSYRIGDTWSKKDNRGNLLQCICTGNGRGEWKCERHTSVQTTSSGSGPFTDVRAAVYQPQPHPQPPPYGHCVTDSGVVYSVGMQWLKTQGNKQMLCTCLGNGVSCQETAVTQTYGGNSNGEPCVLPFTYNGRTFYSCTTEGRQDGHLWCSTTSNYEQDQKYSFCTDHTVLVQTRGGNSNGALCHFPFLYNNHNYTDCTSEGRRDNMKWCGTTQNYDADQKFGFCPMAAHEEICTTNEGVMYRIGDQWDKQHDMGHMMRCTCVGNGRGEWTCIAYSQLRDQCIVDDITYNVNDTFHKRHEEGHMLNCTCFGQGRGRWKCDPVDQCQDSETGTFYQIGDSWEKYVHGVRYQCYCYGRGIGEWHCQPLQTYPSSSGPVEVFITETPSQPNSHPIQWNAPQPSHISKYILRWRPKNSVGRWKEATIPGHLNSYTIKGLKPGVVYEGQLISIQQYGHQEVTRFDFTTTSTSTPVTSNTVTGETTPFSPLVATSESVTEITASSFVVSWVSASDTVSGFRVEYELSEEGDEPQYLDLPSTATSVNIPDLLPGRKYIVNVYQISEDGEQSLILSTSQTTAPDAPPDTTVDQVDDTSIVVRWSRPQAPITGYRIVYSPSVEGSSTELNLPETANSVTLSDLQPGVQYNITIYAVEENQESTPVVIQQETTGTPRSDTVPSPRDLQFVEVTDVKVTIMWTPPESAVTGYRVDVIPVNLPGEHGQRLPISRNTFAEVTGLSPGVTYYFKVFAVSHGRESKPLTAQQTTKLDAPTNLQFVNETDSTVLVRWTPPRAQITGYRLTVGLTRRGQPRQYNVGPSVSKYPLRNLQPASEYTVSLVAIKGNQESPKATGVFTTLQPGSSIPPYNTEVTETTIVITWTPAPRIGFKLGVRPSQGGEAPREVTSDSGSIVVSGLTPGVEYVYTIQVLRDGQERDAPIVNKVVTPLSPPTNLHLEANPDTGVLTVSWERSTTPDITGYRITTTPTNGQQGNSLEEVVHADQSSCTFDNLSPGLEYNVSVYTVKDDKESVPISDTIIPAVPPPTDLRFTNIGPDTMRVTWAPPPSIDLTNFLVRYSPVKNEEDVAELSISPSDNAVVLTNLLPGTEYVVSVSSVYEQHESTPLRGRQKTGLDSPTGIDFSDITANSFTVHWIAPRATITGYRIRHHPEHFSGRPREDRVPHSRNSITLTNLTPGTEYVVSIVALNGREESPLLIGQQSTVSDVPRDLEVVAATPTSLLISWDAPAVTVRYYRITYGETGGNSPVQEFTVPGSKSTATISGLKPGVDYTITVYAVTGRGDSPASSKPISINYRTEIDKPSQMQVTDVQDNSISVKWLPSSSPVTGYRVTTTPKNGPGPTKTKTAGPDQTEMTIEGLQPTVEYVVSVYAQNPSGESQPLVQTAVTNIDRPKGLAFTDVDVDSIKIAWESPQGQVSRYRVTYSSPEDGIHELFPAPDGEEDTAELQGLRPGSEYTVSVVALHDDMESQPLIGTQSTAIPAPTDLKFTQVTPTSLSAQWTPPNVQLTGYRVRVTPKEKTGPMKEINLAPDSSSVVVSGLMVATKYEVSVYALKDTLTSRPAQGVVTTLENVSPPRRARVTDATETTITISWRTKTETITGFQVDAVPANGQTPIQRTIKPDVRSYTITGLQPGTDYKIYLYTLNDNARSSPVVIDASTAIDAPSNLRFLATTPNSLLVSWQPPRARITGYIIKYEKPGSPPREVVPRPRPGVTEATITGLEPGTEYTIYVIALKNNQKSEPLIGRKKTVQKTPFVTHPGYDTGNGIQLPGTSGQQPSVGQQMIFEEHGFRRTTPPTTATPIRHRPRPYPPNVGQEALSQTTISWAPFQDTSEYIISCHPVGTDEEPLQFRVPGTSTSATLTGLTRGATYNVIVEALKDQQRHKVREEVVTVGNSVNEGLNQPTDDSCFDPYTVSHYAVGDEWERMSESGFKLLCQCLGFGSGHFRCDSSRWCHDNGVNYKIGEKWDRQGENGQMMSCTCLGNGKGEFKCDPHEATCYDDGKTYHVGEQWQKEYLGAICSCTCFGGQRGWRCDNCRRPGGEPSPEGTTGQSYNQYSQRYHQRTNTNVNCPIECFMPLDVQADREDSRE

[15] = target: Serpin H1 (human) (UniProt P50454)
[16] = target: Integrin beta-5 (human) (UniProt P18084)
[17] = target: Synaptonemal complex protein SC65 (human) (UniProt Q92791)
[18] = target: Integrin alpha-2 (human) (UniProt P17301)
[19] = target: Integrin alpha-5 (human) (UniProt P08648)
[20] = target: Laminin subunit alpha-5 (human) (UniProt O15230)
[21] = target: Scavenger receptor class A member 5 (human) (UniProt Q6ZMJ2)
[22] = target: Endothelial protein C receptor (human) (UniProt Q9UNN8)
[23] = target: Solute carrier family 2, facilitated glucose transporter member 1 (human) (UniProt P11166)
[24] = target: Prolow-density lipoprotein receptor-related protein 1 (human) (UniProt Q07954)
[25] = target: Myoferlin (Q9NZM1-2) (human) (UniProt Q9NZM1)
[26] = target: Cation-independent mannose-6-phosphate receptor (human) (UniProt P11717)
[27] = target: CD109 antigen (Q6YHK3-4) (human) (UniProt Q6YHK3)

Substance: Avaren-Fc (AvFc) (Fc fusion)
- Percentage of Total Spectra (%) [1]: 0.066%
- Percentage of Total Spectra (%) [2]: 0.033%
- Percentage of Total Spectra (%) [3]: 0.21%
- Percentage of Total Spectra (%) [4]: 0.058%
- Percentage of Total Spectra (%) [5]: 0.058%
- Percentage of Total Spectra (%) [6]: 0.066%
- Percentage of Total Spectra (%) [7]: 0.0083%
- Percentage of Total Spectra (%) [8]: 0.13%
- Percentage of Total Spectra (%) [9]: 0.21%
- Percentage of Total Spectra (%) [10]: 0.13%
- Percentage of Total Spectra (%) [11]: 0.16%
- Percentage of Total Spectra (%) [12]: 0.13%
- Percentage of Total Spectra (%) [13]: 0.11%
- Percentage of Total Spectra (%) [14]: 0.21%
- Percentage of Total Spectra (%) [15]: 0.058%
- Percentage of Total Spectra (%) [16]: 0.12%
- Percentage of Total Spectra (%) [17]: 0.066%
- Percentage of Total Spectra (%) [18]: 0.0083%
- Percentage of Total Spectra (%) [19]: 0.041%
- Percentage of Total Spectra (%) [20]: 0.23%
- Percentage of Total Spectra (%) [21]: 0.099%
- Percentage of Total Spectra (%) [22]: 0.033%
- Percentage of Total Spectra (%) [23]: 0.033%
- Percentage of Total Spectra (%) [24]: 0.017%
- Percentage of Total Spectra (%) [25]: 0.11%
- Percentage of Total Spectra (%) [26]: 0.44%
- Percentage of Total Spectra (%) [27]: 0.13%
